Experimental data reported in patent EP4663654A1 (Hangzhou Sciwind Biosciences Co., Ltd., dated 2025).
Starred links: 1 amine or outer side, 2 acyl side, 3 side chain; linkers in the order of their positions; H or OH if unused. *: point of attachment. C20 diacid = O=C(O)CCCCCCCCCCCCCCCCCCC(=O)*; γGlu = O=C(O)[C@H](CCC(=O)[*:2])N[*:1]; AEEA = NCCOCCOCC(=O)O

B1: polypeptide derivative M25 (peptide)
peptide: {C20 diacid-γGlu-AEEA-AEEA-AEEA-AEEA-AEEA-AEEA}-ASQLSTAATQRLADFLRHFTDRDRDILPPTNVGSNTP-NH2
SMILES: CC[C@H](C)[C@H](NC(=O)[C@H](CC(=O)O)NC(=O)[C@H](CCCNC(=N)N)NC(=O)[C@H](CC(=O)O)NC(=O)[C@H](CCCNC(=N)N)NC(=O)[C@H](CC(=O)O)NC(=O)[C@@H](NC(=O)[C@H](Cc1ccccc1)NC(=O)[C@H](Cc1c[nH]cn1)NC(=O)[C@H](CCCNC(=N)N)NC(=O)[C@H](CC(C)C)NC(=O)[C@H](Cc1ccccc1)NC(=O)[C@H](CC(=O)O)NC(=O)[C@H](C)NC(=O)[C@H](CC(C)C)NC(=O)[C@H](CCCNC(=N)N)NC(=O)[C@H](CCC(N)=O)NC(=O)[C@@H](NC(=O)[C@H](C)NC(=O)[C@H](C)NC(=O)[C@@H](NC(=O)[C@H](CO)NC(=O)[C@H](CC(C)C)NC(=O)[C@H](CCC(N)=O)NC(=O)[C@H](CO)NC(=O)[C@H](C)NC(=O)COCCOCCNC(=O)COCCOCCNC(=O)COCCOCCNC(=O)COCCOCCNC(=O)COCCOCCNC(=O)COCCOCCNC(=O)CC[C@H](NC(=O)CCCCCCCCCCCCCCCCCCC(=O)O)C(=O)O)[C@@H](C)O)[C@@H](C)O)[C@@H](C)O)C(=O)N[C@@H](CC(C)C)C(=O)N1CCC[C@H]1C(=O)N1CCC[C@H]1C(=O)N[C@H](C(=O)N[C@@H](CC(N)=O)C(=O)N[C@H](C(=O)NCC(=O)N[C@@H](CO)C(=O)N[C@@H](CC(N)=O)C(=O)N[C@H](C(=O)N1CCC[C@H]1C(N)=O)[C@@H](C)O)C(C)C)[C@@H](C)O
B2: polypeptide derivative M3 (peptide)
peptide: {C20 diacid-γGlu}-ASELSTAALGRLADFLRHFTDRDRDILPPTNVGSNTP-NH2
SMILES: CC[C@H](C)[C@H](NC(=O)[C@H](CC(=O)O)NC(=O)[C@H](CCCNC(=N)N)NC(=O)[C@H](CC(=O)O)NC(=O)[C@H](CCCNC(=N)N)NC(=O)[C@H](CC(=O)O)NC(=O)[C@@H](NC(=O)[C@H](Cc1ccccc1)NC(=O)[C@H](Cc1c[nH]cn1)NC(=O)[C@H](CCCNC(=N)N)NC(=O)[C@H](CC(C)C)NC(=O)[C@H](Cc1ccccc1)NC(=O)[C@H](CC(=O)O)NC(=O)[C@H](C)NC(=O)[C@H](CC(C)C)NC(=O)[C@H](CCCNC(=N)N)NC(=O)CNC(=O)[C@H](CC(C)C)NC(=O)[C@H](C)NC(=O)[C@H](C)NC(=O)[C@@H](NC(=O)[C@H](CO)NC(=O)[C@H](CC(C)C)NC(=O)[C@H](CCC(=O)O)NC(=O)[C@H](CO)NC(=O)[C@H](C)NC(=O)CC[C@H](NC(=O)CCCCCCCCCCCCCCCCCCC(=O)O)C(=O)O)[C@@H](C)O)[C@@H](C)O)C(=O)N[C@@H](CC(C)C)C(=O)N1CCC[C@H]1C(=O)N1CCC[C@H]1C(=O)N[C@H](C(=O)N[C@@H](CC(N)=O)C(=O)N[C@H](C(=O)NCC(=O)N[C@@H](CO)C(=O)N[C@@H](CC(N)=O)C(=O)N[C@H](C(=O)N1CCC[C@H]1C(N)=O)[C@@H](C)O)C(C)C)[C@@H](C)O

Target: T1, human amylin receptor (AMY3) on CHO-K1/Ga15/AMY3 amylin receptor/CRE-luc cells (human, UniProt P30988 25-474; O60896 24-148)
T1 sequence (looked up) 1: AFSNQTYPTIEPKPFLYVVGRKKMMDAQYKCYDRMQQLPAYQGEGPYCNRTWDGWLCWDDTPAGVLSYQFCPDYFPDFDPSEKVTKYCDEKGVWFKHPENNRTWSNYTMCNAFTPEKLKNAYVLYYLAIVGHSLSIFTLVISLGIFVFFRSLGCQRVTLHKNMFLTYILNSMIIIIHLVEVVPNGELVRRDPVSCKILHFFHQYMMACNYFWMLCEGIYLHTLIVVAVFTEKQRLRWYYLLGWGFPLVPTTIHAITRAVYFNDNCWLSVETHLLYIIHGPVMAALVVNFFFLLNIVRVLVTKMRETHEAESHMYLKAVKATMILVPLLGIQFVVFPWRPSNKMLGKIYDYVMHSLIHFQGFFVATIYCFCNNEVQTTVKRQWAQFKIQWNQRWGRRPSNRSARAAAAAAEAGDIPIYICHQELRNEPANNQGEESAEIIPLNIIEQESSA
T1 sequence (looked up) 2: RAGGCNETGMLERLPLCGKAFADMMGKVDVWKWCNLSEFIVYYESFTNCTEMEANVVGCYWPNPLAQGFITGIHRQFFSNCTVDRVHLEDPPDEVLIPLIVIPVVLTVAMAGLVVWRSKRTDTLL
Experiment: cell-based or functional assay

Row | EC50/nM, CRE-luciferase reporter in amylin receptor/CRE-luc CHO cells [nM] | Relative activity (the EC50 ratio of Cagrilintide to the compound) [%] | Binder
1 | 0.124 | 25 | B1
2 | 0.081 | 32 | B2
